Measurements published in publication PMC7891396.

Target: Int^C-eGFP-H6 with the C124A and N146A mutations (construct 9), inactivated C-terminal precursor of the AceL NrdHF split intein (not stated (metagenomic contig from the Antarctic Ace Lake, might originate from a bacteriophage))
Test: MST; Monolith NT.115; 9 at 8.8 nM (eGFP as fluorophore), 1 in a dilution series from 2500 to 0.61 nM; BSA 0.05 % (w/v) and Tween-20 0.1 % (v/v) added; 20 % MST power, 20 % blue LED; four parametric sigmoidal fit

Kd: 0.0822 µM
Substance: MBP-Int^N-H6 (1), N-terminal precursor of the AceL NrdHF split intein (domain or fragment)
